Measured values reported in article PMC11830813.

Target: Fc-tagged CD147 (UniProt P35613)
Chain of UniProt P35613 (P35613 138-325): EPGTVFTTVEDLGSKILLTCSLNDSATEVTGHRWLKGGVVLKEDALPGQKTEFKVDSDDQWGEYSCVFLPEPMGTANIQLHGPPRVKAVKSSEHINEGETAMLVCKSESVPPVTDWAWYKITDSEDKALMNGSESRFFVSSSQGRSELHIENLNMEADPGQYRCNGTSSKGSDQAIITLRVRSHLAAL

recombinant human cyclophilin B (from UniProt P23284 34-216) (natural protein)
SARS-CoV-2 uptake by human monocytes (N protein RNA by RT-qPCR, 24 hpi) after pretreatment with recombinant human CypA and CypB together (each 10 µg/ml) as a decoy; CD147 endogenous on the monocytes (fold decrease): 2.7
